Legend:
[1] = test system: endothelial cell (EC) infiltration; test: In vivo Matrigel plug assay, S1P plugs, EC infiltration; design: species or system mouse; conditions: systemic administration every 48 hrs
Experimental: Based on in vivo studies showing that S1P increased endothelial capillary growth into subcutaneously implanted Matrigel plugs, we speculated that SPHINGOMAB could reduce de novo BV formation in vivo. To investigate this, we employed the in vivo Matrigel Plug assay for neovascularization. In one set of experiments, Matrigel was supplemented with either 1 μM S1P, 0.5 μg/mL bFGF or 1 μg/mL VEGF and then […]. into mice (n=4). After 10 days, the mice were heparinized and injected with the fluorescent lectin, Isolectin B4-FITC, which binds to adhesion molecules expressed by vascular EC that form the growing BVs. The plugs were then excised, frozen in OCT, sectioned and viewed for FITC-stained BVs.
Sections of the plugs were then stained with hemotoxyln & eosin for evaluation of EC infiltration (FIG. 6B). The infiltration of ECs is a critical step in neo-vascularization. […] Cell infiltration is presumed to be ECs although we recognize that other cell types such as immune cells may also be stained.

[2] = test system: CNV lesions; test: Murine laser-induced CNV model (Example 4); assay type: in vivo, mouse; conditions: 0.5 μg
Experimental: Female C57BL6/J mice were subjected to laser-induced rupture of Bruch's membrane and administered either 0.5 μg of Sphingomab or an isotype-matched non-specific (NS) antibody diluted in 2 μl of physiological saline. Mice were sacrificed 14 and 28 days after laser rupture.
To induce CNV lesions, the pupils were dilated with ophthalmic tropicamide (0.5%) and phenylephrine (2.5%). A coverslip was placed on the eye. An Oculight GL 532 nm (Iridex Corporation, Mountain View, Calif.) coupled to a slit lamp set to deliver a 100 msec pulse at 150 mW with a 50 μm spot size was used to rupture Bruch's membrane in three quadrants of the right eye located approximately 50 μm from the optic disc at relative 9, 12 and 3 o'clock positions. The left eye served as an uninjured control in all cases. Any lesion not associated with a vapor bubble or lesions that became confluent were excluded from analysis. […]
To assess collagen deposition, the sclera-choroid-RPE complex was stained with Masson's Trichrome. […] Approximately 30 sections per lesion were evaluated. Quantitation of the volume of collagen deposition was calculated in the same manner as described for CNV lesion volume.
Captured digital images were evaluated morphometrically using ImageJ software (Research Services Branch, National Institutes of Health, Bethesda, Md.).

[3] = test system: CNV lesions; test: CNV animal model, murine vs humanized variants (Example 17); assay type: in vivo, mouse; conditions: 0.5 ug intravitreal Day 0 and Day 6; 14 days post laser; vs saline
Experimental: The humanized antibody variants and the murine antibody were compared for their ability to inhibit neo-vascularization in the CNV animal model of AMD as shown in FIG. 13. […] Mice were sacrificed 14 days post laser surgery. Control mice were treated with aqueous buffer (PBS) or an isotype-matched non-specific antibody. Three of the humanized variants inhibited angiogenesis essentially equivalently to the murine antibody as assessed by measurement of CNV area. CNV lesion volumes are represented as means±SEM. […]
The morphometric and volumetric CNV lesions were measured as follows. […]
Captured digital images were evaluated morphometrically using ImageJ software (Research Services Branch, National Institutes of Health, Bethesda, Md.). Images were split into separate RGB channels for analysis of the red and green channels as follows: 1) a calibration for the specific objective and microscope was applied to set the pixel-to-length ratio; 2) a threshold was applied using the Otsu algorithm; 3) images will be made binary; 4) a region-of-interest (ROI) was outlined to include the entire lesion area; 5) a particle analysis was performed to quantify the pixel area above the threshold level within the ROI. […]

[4] = test system: VEGF- or bFGF-induced neovascularization; test: In vivo Matrigel plug assay, VEGF or bFGF plugs, neovascularization; design: species or system mouse; conditions: 25 mg/kg i.p. every 48 hrs, 10 days
Experimental: Endogenous S1P from the blood and surrounding tissue could supply a wound with pro-angiogenic stimuli. The ability of SPHINGOMAB to reduce endogenous S1P in a wound was investigated. Optimally stimulated plugs (Matrigel supplemented with 0.5 μg/mL bFGF or […] VEGF) were implanted into mice. Mice received i.p. injections of 25 mg/kg SPHINGOMAB or saline every 48 hrs starting 1 day prior to Matrigel implantation. Each treatment group (Matrigel, Matrigel plus GF or Matrigel plus GF and administered SPHINGOMAB) consisted of a minimum of 6 mice. After 10 days, the mice were treated with heparin, injected with Isolectin B4-FITC, the plugs excised, embedded in OCT freezing medium and sectioned.

B1: LT1002: murine monoclonal antibody to S1P, IgG1 kappa, hybridoma clone 306D326.26 (antibody, listed as Mus sp., V domains shown)
VH: QAHLQQSDAELVKPGASVKISCKVSGFIFIDHTIHWMKQRPEQGLEWIGCISPRHDITKYNEMFRGKATLTADKSSTTAYIQVNSLTFEDSAVYFCARGGFYGSTIWFDFWGQGTTLTVS
VL: ETTVTQSPASLSMAIGEKVTIRCITTTDIDDDMNWFQQKPGEPPNLLISEGNILRPGVPSRFSSSGYGTDFLFTIENMLSEDVADYYCLQSDNLPFTFGSGTKLEIK
For B1, the “EC infiltration into S1P Matrigel plugs” value [1] was “reduced amount of EC infiltration”, the choroidal neovascularization ([2]; 14 and 28 days after laser-induced rupture of Bruch's membrane) was “dramatically attenuates” and the “fibrosis associated with CNV lesion formation” value ([2]; 28 days after laser rupture, Masson's Trichrome) was “significantly reduces”. For the same molecule, the “Percent inhibition of lesion size” value [3] was “approximately 80%”, the “decrease in neovascularization of VEGF-containing plugs vs saline-treated” value [4] was 5 fold and the “decrease in neovascularization of bFGF-containing plugs vs saline-treated” value ([4]; 0.5 μg/mL bFGF) was 8.5 fold.

— US8614103B2, “Compositions and methods for treating sphingosine-1-phosphate (S1P) related ocular diseases and conditions” (Lpath, Inc., priority 2006, dated 2013)
